Target: T1, soluble recombinant human CD93 ectodomain protein rCD93D123 (Thr22-Lys580) (human, UniProt Q9NPY3 22-580)
T1 construct: CD93, human, ectodomain D1 (lectin-like domain) + D2 (five EGF-like repeats) + D3 (mucin-like domain), residues Thr22-Lys580; also called soluble rCD93; source: HEK293 cell protein expression system, purified (nickel-chelating Sepharose column)
T1 sequence (looked up): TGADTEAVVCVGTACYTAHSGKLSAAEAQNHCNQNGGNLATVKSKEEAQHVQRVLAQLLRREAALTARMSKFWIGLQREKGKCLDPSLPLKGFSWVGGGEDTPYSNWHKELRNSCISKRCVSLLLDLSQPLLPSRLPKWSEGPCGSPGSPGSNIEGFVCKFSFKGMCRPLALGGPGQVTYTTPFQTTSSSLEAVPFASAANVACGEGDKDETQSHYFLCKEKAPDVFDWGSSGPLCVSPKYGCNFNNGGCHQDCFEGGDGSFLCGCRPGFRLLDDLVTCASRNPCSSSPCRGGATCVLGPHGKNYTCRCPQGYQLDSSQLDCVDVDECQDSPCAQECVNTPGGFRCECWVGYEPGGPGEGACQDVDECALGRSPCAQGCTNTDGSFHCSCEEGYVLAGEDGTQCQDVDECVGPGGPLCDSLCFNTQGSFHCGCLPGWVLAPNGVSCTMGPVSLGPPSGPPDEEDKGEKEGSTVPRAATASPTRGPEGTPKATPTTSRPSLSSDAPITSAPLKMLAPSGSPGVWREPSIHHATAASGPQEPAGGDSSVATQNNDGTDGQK
Experiment: co-IP; rCD93D123 (5 nM) and HMGB1 (5 nM) incubated 1 hour at 37 °C in 50 mM Tris-HCl, 100 mM NaCl, 0.25% Triton X-100, 1 mM MgCl2, 2 mM EGTA; precipitated with anti-HMGB1 antibody on protein A agarose overnight at 4 °C; blot with anti-c-Myc antibody
Conditions: both partners purified

B1: recombinant human high-mobility group box 1 (HMGB1) protein (natural protein, UniProt P09429 1-215, looked up)
chain: MGKGDPKKPRGKMSSYAFFVQTCREEHKKKHPDASVNFSEFSKKCSERWKTMSAKEKGKFEDMAKADKARYEREMKTYIPPKGETKKKFKDPNAPKRPPSAFFLFCSEYRPKIKGEHPGLSIGDVAKKLGEMWNNTAADDKQPYEKKAAKLKEKYEKDIAAYRAKGKPDAAKKGVVKAEKSKKKKEEEEDEEDEEDEEEEEDEEDEDEEEDDDDE
notes: High-mobility group box 1 protein, human, recombinant; No catalogue number is printed; source: bought: R&D Systems
B1: binds.

— article PMC10405849, “Soluble CD93 lectin-like domain sequesters HMGB1 to ameliorate inflammatory diseases” (Theranostics, 2023)
